One assay deals with IL-15R β protein (UniProt P14784). The assay is described as follows: BLI (Octet-RED), IL-15Rβ immobilized on Ni-NTA biosensors, serial dilutions of the complex as analyte, global 1:1 fit. In general terms: Biolayer interferometry detects binding as a change in optical thickness at a sensor tip.
In the next assay the target is FL115-WT (Homo sapiens (Human), UniProt P40933 49-162). The assay is described as above. Here is the method:
The binding activity of an agonistic interleukin 15 complex to the receptor IL-15R β was assayed using an Octet-RED (Pall ForteBio) Bio-Layer Interferometry (BLI) instrument. […] 6.2 (2022): e2100966, PMID: 35174992). The baseline was established in kinetics buffer and loaded biosensors were dipped into wells containing serial dilutions of an agonistic interleukin 15 complex for 300 s. FL115 (also named FL115-V2), an agonistic interleukin 15 complex according to an embodiment of the application, contains a monomeric IL-15 receptor αSu/Fc fusion protein having the amino acid sequence of SEQ ID NO: 2 and a mutant IL15 having the amino acid sequence of SEQ ID NO: 3. FL115-WT, another agonistic interleukin 15 complex according to an embodiment of the application, contains a monomeric IL-15 receptor αSu/Fc fusion protein having the amino acid sequence of SEQ ID NO: 2 and the wild-type IL15 having the amino acid sequence of SEQ ID NO: 4. The agonistic interleukin 15 complex was bound to the immobilized IL-15R β protein. The binding complexes of the IL-15R β protein-agonistic IL15 complex were then allowed to dissociate in kinetics buffer. Global data fitting to a 1:1 binding model was used to estimate the affinity using Data Analysis software version 8.1.

The results in this text go back to US20260242444A1 (SUZHOU FORLONG BIOTECHNOLOGY, published 2026).

FL115-WT, sequence (chain, as listed by the source limits assumed, chain 1 of 2): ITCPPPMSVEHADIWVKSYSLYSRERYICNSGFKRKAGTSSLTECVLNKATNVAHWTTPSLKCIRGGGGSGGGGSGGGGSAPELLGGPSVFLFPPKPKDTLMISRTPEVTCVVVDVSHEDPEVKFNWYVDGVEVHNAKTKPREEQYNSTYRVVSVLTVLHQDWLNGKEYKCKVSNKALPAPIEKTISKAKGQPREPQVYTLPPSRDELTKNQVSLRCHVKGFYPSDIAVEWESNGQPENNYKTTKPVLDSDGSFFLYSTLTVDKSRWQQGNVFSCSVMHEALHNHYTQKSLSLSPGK
FL115-WT, sequence (P40933 49-162 limits assumed, chain 2 of 2): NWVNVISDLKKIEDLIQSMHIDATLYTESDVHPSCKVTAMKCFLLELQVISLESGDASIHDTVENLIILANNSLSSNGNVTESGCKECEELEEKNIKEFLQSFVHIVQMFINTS

The term Kd denotes the equilibrium constant for the complex coming apart. A low value points to a tighter complex. One may read the koff as a measure of how fast the partners let go of each other. In general, kon refers to the second-order rate constant of association. On to ALT 803 (Fc fusion), for which, in the assay with IL-15R β protein, the Kd turned out to be 3.9 nM, the koff worked out at 0.000235 s⁻¹ and the kon is 60400 M⁻¹ s⁻¹.

B1: IL-15R β protein (receptor, UniProt P14784 27-239, looked up)
chain: AVNGTSQFTCFYNSRANISCVWSQDGALQDTSCQVHAWPDRRRWNQTCELLPVSQASWACNLILGAPDSQKLTTVDIVTLRVLCREGVRWRVMAIQDFKPFENLRLMAPISLQVVHVETHRCNISWEISQASHYFERHLEFEARTLSPGHTWEEAPLLTLKQKQEWICLETLTPDTQYEFQVRVKPLQGEFTTWSPWSQPLAFRTKPAALGKD
notes: also called IL-15 receptor β; IL-2/IL-15 receptor beta
In the assay with FL115-WT, B1 returned a Kd of 62.7 nM, a koff of 0.00108 s⁻¹ and a kon of 17200 M⁻¹ s⁻¹.
